Source: article PMC4976026 (The Journal of allergy and clinical immunology, 2016)

Molecular target: T1, tGFP-tagged Rab27a R82C (human, UniProt P51159 1-221, R82C)
T1 sequence (looked up): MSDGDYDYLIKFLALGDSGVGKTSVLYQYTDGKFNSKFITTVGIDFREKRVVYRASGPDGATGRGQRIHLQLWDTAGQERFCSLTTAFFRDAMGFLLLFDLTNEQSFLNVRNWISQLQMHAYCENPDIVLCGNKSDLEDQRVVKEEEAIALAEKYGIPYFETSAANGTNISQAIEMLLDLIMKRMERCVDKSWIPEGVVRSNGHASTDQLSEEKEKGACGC
Test: co-IP

- fold melanophilin coprecipitated relative to Rab27a D74H: 2.7 ± 1.4 fold
B1: melanophilin (natural protein, human (endogenous in mel1106), UniProt Q9BV36 1-600, looked up)
chain: MGKKLDLSKLTDEEAQHVLEVVQRDFDLRRKEEERLEALKGKIKKESSKRELLSDTAHLNETHCARCLQPYQLLVNSKRQCLECGLFTCKSCGRVHPEEQGWICDPCHLARVVKIGSLEWYYEHVKARFKRFGSAKVIRSLHGRLQGGAGPELISEERSGDSDQTDEDGEPGSEAQAQAQPFGSKKKRLLSVHDFDFEGDSDDSTQPQGHSLHLSSVPEARDSPQSLTDESCSEKAAPHKAEGLEEADTGASGCHSHPEEQPTSISPSRHGALAELCPPGGSHRMALGTAAALGSNVIRNEQLPLQYLADVDTSDEESIRAHVMASHHSKRRGRASSESQIFELNKHISAVECLLTYLENTVVPPLAKGLGAGVRTEADVEEEALRRKLEELTSNVSDQETSSEEEEAKDEKAEPNRDKSVGPLPQADPEVGTAAHQTNRQEKSPQDPGDPVQYNRTTDEELSELEDRVAVTASEVQQAESEVSDIESRIAALRAAGLTVKPSGKPRRKSNLPIFLPRVAGKLGKRPEDPNADPSSEAKAMAVPYLLRRKFSNSLKSQGKDDDSFDRKSVYRGSLTQRNPNARKGMASHTFAKPVVAHQS
